Columns and labels:
human IL-11 [1] = biological target: T1, human IL-11 (human, UniProt P20809 22-199); test: cell-based or functional assay
T1 sequence: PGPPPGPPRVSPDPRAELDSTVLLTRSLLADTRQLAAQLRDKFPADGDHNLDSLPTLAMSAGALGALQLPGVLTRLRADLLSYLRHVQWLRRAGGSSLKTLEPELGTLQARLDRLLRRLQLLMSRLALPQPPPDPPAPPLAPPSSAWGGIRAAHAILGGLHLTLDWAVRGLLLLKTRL

murine IL-11 [2] = biological target: T2, murine IL-11 (mouse, UniProt P47873 22-199); test: cell-based or functional assay
T2 sequence: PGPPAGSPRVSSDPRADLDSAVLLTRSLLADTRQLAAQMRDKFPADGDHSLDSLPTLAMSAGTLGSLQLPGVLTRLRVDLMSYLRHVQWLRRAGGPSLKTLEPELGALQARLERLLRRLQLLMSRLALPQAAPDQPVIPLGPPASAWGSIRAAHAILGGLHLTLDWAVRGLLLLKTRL

human IL-11 [3] = biological target: T1, human IL-11; test: SPR (Biacore), 25 C, antibody captured via anti-Fc, IL-11 as analyte
Protocol: (§1) To assess the binding kinetics and affinity of anti-IL-11 bispecific antibodies as well as their species cross-reactivity profile, binding assays were conducted using surface plasmon resonance (SPR). […] Antibodies were captured either via anti-human Fc IgGs (“Human antibody capture kit”, Order No. BR100839, Cytiva) or via anti-mouse Fc IgGs (“Mouse antibody capture kit, Order No. BR100383, Cytiva) covalently amine coupled to a Series S CM5 sensor chip (Cytiva) depending on the isotype. The amine coupling was carried out according to the manufacturer's instructions using 1-ethyl-3-(3-dimethylaminopropyl) carbodiimide hydrochloride (EDC), N-hydroxysuccinimide (NHS) and ethanolamine HCl, pH 8.5 (“Amine Coupling Kit” BR-1000-50, Cytiva.). Human, mouse, cynomolgus or rat IL-11 was used as analyte at several dilutions within the concentration range from 0.05-200 nM. For binding assays with only one concentration 200 nM IL-11 was used. The sensor surface was regenerated with glycine pH 1.7 after each antigen injection. Obtained sensorgrams were double referenced (subtraction of reference flow cell signal and buffer injection) and were fitted to a 1:1 Langmuir binding model to derive kinetic data using the Biacore T200 Evaluation software or the Biacore Insight software.
(§2) If no value is reported, there was either no binding or very low binding and multiphasic binding behavior.

murine IL-11 [4] = biological target: T2, murine IL-11; test: as above
Protocol: as §1, §2

cynomolgus IL-11 [5] = biological target: T3, cynomolgus IL-11 (cynomolgus, UniProt P20808 22-199); test: as above
T3 construct: Invigate recombinant protein; also called cIL11; Macaca IL-11
T3 sequence: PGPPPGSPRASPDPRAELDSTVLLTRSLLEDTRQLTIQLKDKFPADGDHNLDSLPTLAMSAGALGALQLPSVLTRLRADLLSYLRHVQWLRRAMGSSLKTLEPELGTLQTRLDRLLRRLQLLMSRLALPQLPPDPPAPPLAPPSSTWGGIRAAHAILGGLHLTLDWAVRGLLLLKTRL
Protocol: as §1, §2

rat IL-11 [6] = biological target: T4, rat IL-11 (rat, UniProt Q99MF5 22-199); test: as above
T4 construct: Invigate recombinant protein; also called rIL11
T4 sequence: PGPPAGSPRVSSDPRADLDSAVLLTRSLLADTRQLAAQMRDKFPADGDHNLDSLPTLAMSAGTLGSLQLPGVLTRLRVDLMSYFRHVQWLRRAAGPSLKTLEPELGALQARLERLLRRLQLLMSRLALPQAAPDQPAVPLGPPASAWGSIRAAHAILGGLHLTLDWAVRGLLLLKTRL
Protocol: as §1, §2

human IL2Ra = biological target: T5, human IL2Ra (human, UniProt P01589 22-240, limits assumed); test: ELISA on coated IL2Ra, signal ratio to isotype control at 1E-07 M antibody
T5 construct: coated on the ELISA plate; also called IL-2 receptor alpha
T5 sequence (looked up): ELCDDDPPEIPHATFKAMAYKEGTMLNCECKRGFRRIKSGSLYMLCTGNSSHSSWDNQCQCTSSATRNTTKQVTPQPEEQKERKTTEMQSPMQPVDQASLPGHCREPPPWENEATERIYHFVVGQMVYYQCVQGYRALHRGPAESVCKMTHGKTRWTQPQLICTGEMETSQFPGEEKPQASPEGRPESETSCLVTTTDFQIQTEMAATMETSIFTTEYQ
Protocol: IL2RA (Peprotech, Germany, #200-02RC) was coated at 1 or 0 μg/ml (buffer only control) in 30 μl coating buffer (Candor, #113500) per well on a 384 well microtiter plate (Maxisorb, Nunc, #460518) over night at 4-8° C. After two washes with 50 μl/well washing buffer (PBS+0.05% Tween, pH 7.4), the plates were incubated for two hours at room temperature with 50 μl/well SmartBlock (Candor, #113500). After blocking, the plates were washed three times with washing buffer. Then, a dilution series of the respective antibody (1E-7 [M] down to 2E-13 [M]) in PBS+0.05% Tween, 10% SmartBlock were added in 30 μl to the microtiter plate and incubated for 90 min at room temperature. After three additional washes, 30 μl anti mouse IgG HRP-conjugated antibody (Biotechne, HAF007), diluted 1:1000 in PBS+0.05% Tween (pH 7.4), were added per well and incubated for one hour. After three additional washes, a mixture of Amplex red (Invitrogen, #12222, 10 mM stock solution in DMSO) 1:1000 diluted in PBS and H2O2 (30%, Merck, #107209)) diluted 1:10000 in PBS were added as substrate with 30 μl per well and incubated for 20 min in the dark. Relative fluorescence was measured with a microtiter plate reader at 535/590 nm.
Bispecific antibodies were subjected to the experimental assay procedure described in Example 20. Ratios of the signals generated at an antibody concentration of 1E-07 [M] by the respective bispecific antibody versus those of an isotype control antibody were calculated and are shown in Table E29. The bispecific antibodies show no binding to IL-2 Ra.

murine IL-11 [7] = biological target: T2, murine IL-11; test: Di-complex ELISA, murine IL11RA-Fc binding to immobilized mIL-11, competition
Protocol: In the Di-complex ELISA format anti IL-11 antibodies are tested for the ability to interfere with the formation of complexes consisting of immobilized murine IL-11 (Invigate, e.g., lot #C210819-09) or human IL-11 (Invigate, e.g., lot #C121021-19), and murine IL11RA-Fc fusion proteins or canine IL11RA-human-Fc fusion protein (FIG. 17a, b).
Bispecific antibodies were subjected to the experimental assay procedure described in Example 18 and IC50 [M], respectively efficacy (%) were calculated accordingly.

human IL-11 [8] = biological target: T1, human IL-11; test: Tri-complex ELISA, hIL-11 + mIL-11Ra-Fc + hgp130-Fc, inhibition of complex formation
Protocol: (§3) In the Tri-complex ELISA format IL-11 antibodies are tested for their ability to inhibit the formation of a complex consisting of murine or human gp130-Fc fusion protein, with murine or human IL-11, and a murine IL11RA-Fc fusion protein. The assay format was adapted according to FIG. 18 (a, b), depending on whether murine or human IL-11 IgG antibodies were tested.
(§4) Bispecific antibodies were subjected to the experimental assay procedure described in Example 19 and IC50 [M], respectively efficacy (%) were calculated accordingly.

murine IL-11 [9] = biological target: T2, murine IL-11; test: Tri-complex ELISA, mIL-11 + mIL-11Ra-Fc + mgp130-Fc, inhibition of complex formation
Protocol: as §3, §4

human IL-11 [10] = biological target: T6, human IL-11 (human, UniProt P20809 22-199); test: cell-based or functional assay; remark: listed apart in the source
T6 sequence: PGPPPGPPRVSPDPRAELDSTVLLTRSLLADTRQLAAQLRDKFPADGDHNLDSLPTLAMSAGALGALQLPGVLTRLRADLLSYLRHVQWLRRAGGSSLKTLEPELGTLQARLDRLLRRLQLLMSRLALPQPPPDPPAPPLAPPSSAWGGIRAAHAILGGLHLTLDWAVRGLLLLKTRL

murine IL-11 [11] = biological target: T7, murine IL-11 (mouse, UniProt P47873 22-199); test: cell-based or functional assay; remark: listed apart in the source
T7 sequence: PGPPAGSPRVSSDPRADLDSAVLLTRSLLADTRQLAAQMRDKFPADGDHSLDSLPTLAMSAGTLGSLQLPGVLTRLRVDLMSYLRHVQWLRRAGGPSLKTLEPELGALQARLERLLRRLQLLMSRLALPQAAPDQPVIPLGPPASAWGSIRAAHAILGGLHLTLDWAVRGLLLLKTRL

cynomolgus IL-11 [12] = biological target: T8, cynomolgus IL-11 (cynomolgus, UniProt P20808 22-199); test: cell-based or functional assay
T8 sequence: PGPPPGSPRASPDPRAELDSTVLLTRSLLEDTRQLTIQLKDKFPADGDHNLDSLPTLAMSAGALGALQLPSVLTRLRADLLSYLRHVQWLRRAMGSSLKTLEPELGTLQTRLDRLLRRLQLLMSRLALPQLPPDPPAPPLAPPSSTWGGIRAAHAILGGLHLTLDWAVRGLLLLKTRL

rat IL-11 [13] = biological target: T9, rat IL-11 (rat, UniProt Q99MF5 22-199); test: cell-based or functional assay
T9 sequence: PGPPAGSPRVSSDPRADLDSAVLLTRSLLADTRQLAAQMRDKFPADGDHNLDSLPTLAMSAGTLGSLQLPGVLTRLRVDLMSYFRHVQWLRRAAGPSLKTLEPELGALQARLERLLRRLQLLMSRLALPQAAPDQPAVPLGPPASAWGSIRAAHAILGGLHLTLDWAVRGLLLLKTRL

human IL-11 [14] = biological target: T6, human IL-11; test: SPR 37 C, antibody captured, IL-11 as analyte
murine IL-11 [15] = biological target: T7, murine IL-11; test: SPR 37 C, antibody captured, IL-11 as analyte
cynomolgus IL-11 [16] = biological target: T8, cynomolgus IL-11; test: SPR 37 C, antibody captured, IL-11 as analyte
rat IL-11 [17] = biological target: T9, rat IL-11; test: SPR 37 C, antibody captured, IL-11 as analyte
human IL-11 [18] = biological target: T6, human IL-11; test: Di-complex ELISA, competitor murine IL11RA-Fc on coated IL-11
murine IL-11 [19] = biological target: T7, murine IL-11; test: as above

B1: TPP-20489 (bispecific antibody, IgG1)
chain 1: not shown
chain 2: EVQLLESGGGLVQPGGSLRLSCAASGFTFSHYDMNWLRQAPGKGLEWVGVISYDGSNKFYADFVKGRFTISRDNSKNTLYLQMNSLRAEDTAVYYCARTPGSHFDYWGQGTLVTVSSGGGGSGGGGSGGGGSQSVLTQPPSASGTPGQRVTISCSGSSSNIGNNAVNWYQQLPGTAPKLLIYYDDLLPSGVPDRFSGSKSGTSASLAISGLRSEDEADYYCSAWDDSLNGVVFGGGTKLTVLGGGGSGGGGSGGGGSGVECPPCPAPELLGGPSVFLFPPKPKDTLMISRTPEVTCVVVDVSHEDPEVKFNWYVDGVEVHNAKTKPREEQYNSTYRVVSVLTVLHQDWLNGKEYKCKVSNKALPAPIEKTISKAKGQPREPQVCTLPPSRDELTKNQVSLSCAVKGFYPSDIAVEWESNGQPENNYKTTPPVLDSDGSFFLVSKLTVDKSRWQQGNVFSCSVMHEALHNHYTQKSLSLSPG
notes: scFv-kih-hIgG1
Efficacy (%), Stat3 reporter gene assay (human IL-11 [1]): 102%
IC50, Stat3 reporter gene assay (human IL-11 [1]): 310 pM
Efficacy (%), Stat3 reporter gene assay (murine IL-11 [2]): 93.9%
IC50, Stat3 reporter gene assay (murine IL-11 [2]): 1 nM
Kd (human IL-11 [3]): 0.011 nM
Kd (murine IL-11 [4]): 5 pM
Kd (cynomolgus IL-11 [5]): 0.025 nM
Kd (rat IL-11 [6]): 2.6 pM
Ratio IL-2Ra Binding Signal Antibody/Isotype Control (human IL2Ra): 852 ratio
IC50 (murine IL-11 [7]): 35 nM
Efficacy (%) (human IL-11 [8]): 105%
IC50 (human IL-11 [8]): 6.28 nM
Efficacy (%) (murine IL-11 [9]): 94%
IC50 (murine IL-11 [9]): 1.81 nM

B2: TPP-23552 (antibody, human IgG1, kappa)
heavy: not shown
light: DIVLTQSPASLALSPGERATLSCRASKSVSTSGYSYIHWYQQKPGQPPRLLIYLASNLDSGVPARFSGSGSGTDFTLNIHPLEEEDFATYYCQHSRDLPPTFGQGTKLEIKRTVAAPSVFIFPPSDEQLKSGTASVVCLLNNFYPREAKVQWKVDNALQSGNSQESVTEQDSKDSTYSLSSTLTLSKADYEKHKVYACEVTHQGLSSPVTKSFNRGEC
notes: hIgG1, Kappa; also called BSN 3C6 (WO2019238882)
RGA Efficacy (%) (human IL-11 [10]): 76.7%
RGA IC50 (human IL-11 [10]): 3.7 nM
RGA Efficacy (%) (murine IL-11 [11]): 90.9%
RGA IC50 (murine IL-11 [11]): 8.1 nM
RGA Efficacy (%) (cynomolgus IL-11 [12]): 52.4%
RGA Efficacy (%) (rat IL-11 [13]): 81.3%
RGA IC50 (rat IL-11 [13]): 8.8 nM
Kd (human IL-11 [14]): 1.4 nM
Kd (murine IL-11 [15]): 1.8 nM
binding result (cynomolgus IL-11 [16]): no binding (tested: IL-11 up to 200 nM)
Kd (rat IL-11 [17]): 3.2 nM
Efficacy (%) (human IL-11 [18]): 97.2%
IC50 (human IL-11 [18]): 2.9 nM
Efficacy (%) (murine IL-11 [19]): 98.4%
IC50 (murine IL-11 [19]): 3.3 nM

— patent US20240317847A1 (Bayer, published 2024)
